Measured values as given in US20260009051A1.

Legend:
Experiment in all cases: FACS, mAb 5 µg/ml, CD20 variant on transfected HEK293 cells
[1] = biological target: K175R
[2] = biological target: K175F
[3] = biological target: S177A
[4] = biological target: N171H
[5] = biological target: A170S
[6] = biological target: E174Y
[7] = biological target: N171A
[8] = biological target: WT
[9] = biological target: A170P
[10] = biological target: E174D
[11] = biological target: N176A
[12] = biological target: E168A
E168A, sequence (CD20, as listed by the source E168A E168A limits assumed): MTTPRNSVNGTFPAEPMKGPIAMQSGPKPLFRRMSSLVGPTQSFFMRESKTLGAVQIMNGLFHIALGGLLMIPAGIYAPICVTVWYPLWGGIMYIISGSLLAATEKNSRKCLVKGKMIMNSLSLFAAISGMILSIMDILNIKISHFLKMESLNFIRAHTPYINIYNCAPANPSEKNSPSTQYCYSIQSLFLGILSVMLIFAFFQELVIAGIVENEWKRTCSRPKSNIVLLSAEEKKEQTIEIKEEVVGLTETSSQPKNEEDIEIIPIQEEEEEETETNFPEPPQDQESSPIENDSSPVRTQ

[13] = biological target: S173A
S173A, sequence (CD20, as listed by the source S173A S173A limits assumed): as the sequence (CD20, as listed by the source E168A E168A limits assumed) above, with A168E, S173A counted along it

[14] = biological target: P172A
P172A, sequence (CD20, as listed by the source P172A P172A limits assumed): as the sequence (CD20, as listed by the source E168A E168A limits assumed) above, with A168E, P172A counted along it

A170S, sequence (CD20, as listed by the source A170S A170S limits assumed): as the sequence (CD20, as listed by the source E168A E168A limits assumed) above, with A168E, A170S counted along it
E174Y, sequence (CD20, as listed by the source E174Y E174Y limits assumed): as the sequence (CD20, as listed by the source E168A E168A limits assumed) above, with A168E, E174Y counted along it
A170P, sequence (CD20, as listed by the source A170P A170P limits assumed): as the sequence (CD20, as listed by the source E168A E168A limits assumed) above, with A168E, A170P counted along it
K175R, sequence (CD20, as listed by the source K175R K175R limits assumed): as the sequence (CD20, as listed by the source E168A E168A limits assumed) above, with A168E, K175R counted along it
N176A, sequence (CD20, as listed by the source N176A N176A limits assumed): as the sequence (CD20, as listed by the source E168A E168A limits assumed) above, with A168E, N176A counted along it
K175F, sequence (CD20, as listed by the source K175F K175F limits assumed): as the sequence (CD20, as listed by the source E168A E168A limits assumed) above, with A168E, K175F counted along it
N171A, sequence (CD20, as listed by the source N171A N171A limits assumed): as the sequence (CD20, as listed by the source E168A E168A limits assumed) above, with A168E, N171A counted along it
N171H, sequence (CD20, as listed by the source N171H N171H limits assumed): as the sequence (CD20, as listed by the source E168A E168A limits assumed) above, with A168E, N171H counted along it
S177A, sequence (CD20, as listed by the source S177A S177A limits assumed): as the sequence (CD20, as listed by the source E168A E168A limits assumed) above, with A168E, S177A counted along it
E174D, sequence (CD20, as listed by the source E174D E174D limits assumed): as the sequence (CD20, as listed by the source E168A E168A limits assumed) above, with A168E, E174D counted along it
WT, sequence (CD20, as listed by the source limits assumed): as the sequence (CD20, as listed by the source E168A E168A limits assumed) above, with A168E counted along it

Row | Substance | % of best binder [1] [%] | % of best binder [2] [%] | % of best binder [3] [%] | % of best binder [4] [%] | % of best binder [5] [%] | % of best binder [6] [%] | % of best binder [7] [%] | % of best binder [8] [%] | % of best binder [9] [%] | % of best binder [10] [%] | % of best binder [11] [%] | % of best binder [12] [%] | % of best binder [13] [%] | % of best binder [14] [%]
1 | B1 (antibody) | 53 | 46 | 40 | 58 | 55 | 51 | 46 | 59 | 38 | 57 | 2 | 48 | 55 | 31
2 | m7D8 (antibody) | 71 | 71 | 68 | 86 | 60 | 80 | 82 | 77 | 62 | 67 | 67 | 66 | 73 | 69
3 | m11B8 (antibody) | 89 | 94 | 79 | 100 | 84 | 13 | 100 | 82 | 41 | 9 | 88 | 83 | 98 | 96
4 | mRTX (antibody) | 65 | 67 | 63 | 5 | 60 | 29 | 3 | 77 | 42 | 52 | 65 | 52 | 2 | 25
